Measured values: patent publication US20050048622A1 (Genentech, published 2005)

B1: RSE.Fc (Fc fusion, UniProt Q06418 41-428, looked up)
chain: AGLKLMGAPVKLTVSQGQPVKLNCSVEGMEEPDIQWVKDGAVVQNLDQLYIPVSEQHWIGFLSLKSVERSDAGRYWCQVEDGGETEISQPVWLTVEGVPFFTVEPKDLAVPPNAPFQLSCEAVGPPEPVTIVWWRGTTKIGGPAPSPSVLNVTGVTQSTMFSCEAHNLKGLASSRTATVHLQALPAAPFNITVTKLSSSNASVAWMPGADGRALLQSCTVQVTQAPGGWEVLAVVVPVPPFTCLLRDLVPATNYSLRVRCANALGPSPYADWVPFQTKGLAPASAPQNLHAIRTDSGLILEWEEVIPEAPLEGPLGPYKLSWVQDNGTQDELTVEGTRANLTGWDPQKDLIVRVCVSNAVGCGPWSQPLVVSSHDRAGQQGPPHSRTS
notes: Control; also called control fusion protein; control receptor RSE.Fc; not shown: Fc part

Key:
ErbB4.Fc = ErbB4.Fc (UniProt Q15303); experiment: displacement of ^125I-NRG3^EGF.Fc from immobilized ErbB4.Fc, 96-well plate
human ErbB4 receptor = target: T1, human ErbB4 receptor (human, UniProt Q15303 26-1308); experiment: FACS on K562^erbB4 cells
T1 construct: whole, on cells; also called HER4; K562^erbB4 cells

human ErbB2 receptor = target: T2, human ErbB2 receptor (human, UniProt P04626 23-1255); experiment: FACS on K562^erbB2 cells
T2 construct: whole, on cells; also called HER2; K562^erbB2 cells

human ErbB3 receptor = target: T3, human ErbB3 receptor (human, UniProt P21860 20-1342); experiment: FACS on K562^erbB3 cells
T3 construct: whole, on cells; also called HER3; K562^erbB3 cells
T3 sequence (P21860 20-1342): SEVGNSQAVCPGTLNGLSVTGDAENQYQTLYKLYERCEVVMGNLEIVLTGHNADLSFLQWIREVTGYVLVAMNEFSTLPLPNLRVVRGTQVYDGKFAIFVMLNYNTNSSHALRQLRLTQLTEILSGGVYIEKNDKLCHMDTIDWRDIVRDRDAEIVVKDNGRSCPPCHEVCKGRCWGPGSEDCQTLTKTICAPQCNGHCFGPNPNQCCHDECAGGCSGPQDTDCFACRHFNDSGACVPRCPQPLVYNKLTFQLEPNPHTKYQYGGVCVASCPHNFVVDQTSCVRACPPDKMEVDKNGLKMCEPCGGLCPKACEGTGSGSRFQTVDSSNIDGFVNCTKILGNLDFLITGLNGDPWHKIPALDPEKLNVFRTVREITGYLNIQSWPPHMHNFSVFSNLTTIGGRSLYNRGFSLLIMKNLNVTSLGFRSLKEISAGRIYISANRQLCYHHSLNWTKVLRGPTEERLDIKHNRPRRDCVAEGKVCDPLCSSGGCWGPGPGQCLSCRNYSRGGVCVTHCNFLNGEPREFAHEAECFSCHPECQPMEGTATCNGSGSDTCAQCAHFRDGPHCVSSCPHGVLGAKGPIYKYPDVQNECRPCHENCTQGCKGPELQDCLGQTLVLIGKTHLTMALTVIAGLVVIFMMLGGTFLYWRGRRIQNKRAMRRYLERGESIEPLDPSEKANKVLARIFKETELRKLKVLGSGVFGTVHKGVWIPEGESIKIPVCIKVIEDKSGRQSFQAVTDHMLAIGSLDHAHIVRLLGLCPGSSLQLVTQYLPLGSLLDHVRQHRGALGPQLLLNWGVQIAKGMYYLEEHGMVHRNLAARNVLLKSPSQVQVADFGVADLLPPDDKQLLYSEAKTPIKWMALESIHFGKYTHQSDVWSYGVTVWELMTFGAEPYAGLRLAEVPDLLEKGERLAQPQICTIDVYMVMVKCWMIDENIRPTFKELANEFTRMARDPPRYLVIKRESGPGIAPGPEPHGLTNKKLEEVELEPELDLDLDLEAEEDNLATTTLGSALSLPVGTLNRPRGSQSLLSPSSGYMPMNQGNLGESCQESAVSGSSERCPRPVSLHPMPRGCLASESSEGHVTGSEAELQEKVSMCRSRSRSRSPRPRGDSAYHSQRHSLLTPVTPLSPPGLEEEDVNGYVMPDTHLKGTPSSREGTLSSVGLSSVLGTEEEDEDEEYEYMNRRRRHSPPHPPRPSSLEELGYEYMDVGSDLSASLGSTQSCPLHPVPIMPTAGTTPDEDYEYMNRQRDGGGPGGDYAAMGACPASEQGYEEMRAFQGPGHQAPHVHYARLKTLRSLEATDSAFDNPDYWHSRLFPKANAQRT

Sequence of ErbB4.Fc (Q15303 26-651 limits assumed): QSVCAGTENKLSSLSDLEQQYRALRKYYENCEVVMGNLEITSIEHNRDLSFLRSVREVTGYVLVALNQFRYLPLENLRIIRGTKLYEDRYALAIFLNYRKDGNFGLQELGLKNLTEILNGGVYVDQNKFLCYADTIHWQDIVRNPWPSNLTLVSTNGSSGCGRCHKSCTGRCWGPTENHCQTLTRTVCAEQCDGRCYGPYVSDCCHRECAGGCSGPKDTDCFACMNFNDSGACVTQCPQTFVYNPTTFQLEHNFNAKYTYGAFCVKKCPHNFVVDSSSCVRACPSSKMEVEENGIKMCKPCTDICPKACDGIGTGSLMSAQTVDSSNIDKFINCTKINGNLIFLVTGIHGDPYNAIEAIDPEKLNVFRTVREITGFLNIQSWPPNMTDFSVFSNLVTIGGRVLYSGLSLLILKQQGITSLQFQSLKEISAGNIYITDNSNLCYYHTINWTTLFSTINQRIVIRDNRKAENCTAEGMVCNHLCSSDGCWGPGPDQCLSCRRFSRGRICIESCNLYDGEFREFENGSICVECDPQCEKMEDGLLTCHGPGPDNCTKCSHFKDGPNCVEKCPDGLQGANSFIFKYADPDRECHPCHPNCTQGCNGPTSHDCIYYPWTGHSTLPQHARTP
T1 sequence (Q15303 26-1308): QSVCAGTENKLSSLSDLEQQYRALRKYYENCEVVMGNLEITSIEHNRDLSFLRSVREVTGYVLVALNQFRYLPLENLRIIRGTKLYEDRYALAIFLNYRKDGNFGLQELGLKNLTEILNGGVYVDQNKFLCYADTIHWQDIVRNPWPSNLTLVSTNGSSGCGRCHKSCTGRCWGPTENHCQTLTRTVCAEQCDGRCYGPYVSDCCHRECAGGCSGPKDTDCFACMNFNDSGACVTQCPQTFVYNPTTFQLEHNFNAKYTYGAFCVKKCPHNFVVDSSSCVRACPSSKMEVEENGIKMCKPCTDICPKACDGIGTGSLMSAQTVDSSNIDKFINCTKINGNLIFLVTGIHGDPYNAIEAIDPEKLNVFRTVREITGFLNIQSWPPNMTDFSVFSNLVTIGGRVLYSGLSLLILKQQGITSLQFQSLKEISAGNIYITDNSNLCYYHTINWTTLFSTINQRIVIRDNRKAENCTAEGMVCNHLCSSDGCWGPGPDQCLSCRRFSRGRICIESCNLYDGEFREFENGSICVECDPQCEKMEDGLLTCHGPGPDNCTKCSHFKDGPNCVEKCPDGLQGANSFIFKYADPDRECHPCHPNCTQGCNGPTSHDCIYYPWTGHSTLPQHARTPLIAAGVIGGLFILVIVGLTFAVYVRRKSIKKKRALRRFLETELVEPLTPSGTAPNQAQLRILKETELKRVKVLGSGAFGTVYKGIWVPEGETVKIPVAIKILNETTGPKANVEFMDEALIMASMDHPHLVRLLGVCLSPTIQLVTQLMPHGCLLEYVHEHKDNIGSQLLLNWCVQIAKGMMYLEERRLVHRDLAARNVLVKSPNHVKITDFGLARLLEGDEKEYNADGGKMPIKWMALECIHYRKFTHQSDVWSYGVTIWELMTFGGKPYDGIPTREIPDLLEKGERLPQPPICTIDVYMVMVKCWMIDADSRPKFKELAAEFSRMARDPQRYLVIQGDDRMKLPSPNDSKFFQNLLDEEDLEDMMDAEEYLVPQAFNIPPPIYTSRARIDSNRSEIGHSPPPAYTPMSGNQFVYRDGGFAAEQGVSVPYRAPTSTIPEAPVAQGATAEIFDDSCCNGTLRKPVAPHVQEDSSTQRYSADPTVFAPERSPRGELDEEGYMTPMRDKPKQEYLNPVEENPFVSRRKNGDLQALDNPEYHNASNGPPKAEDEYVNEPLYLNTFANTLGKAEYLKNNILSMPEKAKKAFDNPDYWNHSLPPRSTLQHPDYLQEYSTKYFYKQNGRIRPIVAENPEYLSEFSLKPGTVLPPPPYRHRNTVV

Molecule | Ki (ErbB4.Fc) [nM] | binding result (human ErbB4 receptor) | binding result (human ErbB2 receptor) | binding result (human ErbB3 receptor)
NRG1^EGF (rHRGβ1 177-244) (from UniProt Q02297 177-244) (ligand) | 1 |  |  | 
B1 |  | no binding | no binding | no binding
